The target in assay [1] is T1, H1 mini-HA (#4900) (Designed from influenza A virus …, stabilised). Nature of the assay: ELISA.
Assay [2] addresses T1, H1 mini-HA (#4900). Nature of the assay: BLI.
Assay [3] addresses H1N1 A/Solomon Island/3/2006 HA (Influenza A virus A/Solomon …, UniProt A7Y8I1, strain). Nature of the assay: BLI. A general note: Biolayer interferometry detects binding as a change in optical thickness at a sensor tip.

B1: 013–10 3F02 IgG K56N mutant (antibody, V domains shown)
VH: QVQLVESGGGVAQPGRSLRLSCAASGFTFSTYGMHWVRQAPGKGLEWVAVISYDGSNRYYAEILKDRFTISRDNSKNTVYLQMNSLRTEDTAVYFCAKEGRPLIVSGTHFFQFYYGMDVWGQGTTVTVSS
VL: DIQMTQSPSSLSASVGDRVTISCRASQSIGTYLNWYQQKPGKAPNLLIYGTSTLKSGVPSRFSGSGSGTDFTLTIGSLQPEDFATYFCQQSFSPPLTFGRGTRLEIK
As for B1, the “fold weakening of binding affinity against WT” value in assay [1] is 10 fold.

B2: 310–18A5 (antibody, V domains shown)
VH: QVQLMQSGTEVKKPGSSVRVSCKASGSTFNSDAISWVRQAPGQGLEWMGGILGMFRTVNYAQRFQGRVTITADELMSTAYMELSGLRFEDTAVYYCARGDGYKPNFLRYWGQGTLITVSS
VL: TLSLSPGERATLSCRASQSVSSTSLAWYQQKFGQAPRLLIYGASNRATGIPDRFSGSGSGTDFTLTISRLEPEDFAVYYCQQYGNSLTFGGGTKVEIK
For the molecule B2, the Kd amounted to 1 nM in assay [2] and 0.2 nM in assay [3].

For orientation: Kd means the free concentration of one partner at which half of the binding sites on the other are occupied at equilibrium, for simple one-to-one binding.

Values taken from article PMC11464180 (Immunity, 2024).
